Laboratory results as given in patent publication US20090298765A1 (Takeda / Millennium, published 2009).
Non-standard residues stand in square brackets, D forms with d. No end group written: not given here. Phe(3-Cl) = N[C@@H](Cc1cccc(Cl)c1)C(=O)O; Phe(4-Cl) = N[C@@H](Cc1ccc(Cl)cc1)C(=O)O; Phe(4-NH2) = Nc1ccc(C[C@H](N)C(=O)O)cc1; Phe(2-Cl) = N[C@@H](Cc1ccccc1Cl)C(=O)O; Arg(Me) = CNC(=N)NCCC[C@H](N)C(=O)O; azaGly = NNC(=O)O

Legend:
[1] = target: T1, human OT7T175 (metastin receptor) (human, UniProt Q969F8 1-398); experiment: competition with Cy-5 metastin (40-54) on hOT7T175-CHO cells, FMAT
T1 construct: expressed on CHO cells; also called hOT7T175; hOT7T175-expressed CHO cells

[2] = target: T1, human OT7T175 (metastin receptor); experiment: cell-based or functional assay

T1 sequence (Q969F8 whole entry L364H): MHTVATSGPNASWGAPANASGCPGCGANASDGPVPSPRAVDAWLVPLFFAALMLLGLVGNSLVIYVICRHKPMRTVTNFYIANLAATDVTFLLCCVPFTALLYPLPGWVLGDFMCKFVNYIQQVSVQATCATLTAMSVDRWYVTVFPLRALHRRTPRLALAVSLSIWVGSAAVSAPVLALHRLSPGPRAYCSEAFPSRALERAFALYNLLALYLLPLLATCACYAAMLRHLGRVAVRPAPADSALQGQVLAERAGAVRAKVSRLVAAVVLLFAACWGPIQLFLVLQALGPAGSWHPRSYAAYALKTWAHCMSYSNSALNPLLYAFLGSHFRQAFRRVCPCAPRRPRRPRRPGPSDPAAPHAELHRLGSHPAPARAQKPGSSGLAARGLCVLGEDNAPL

Binder | IC50 [1] | Ca ion level-increasing activity (FLIPR) [2]
[dY][dN]WNSF[azaGly]L[Arg(Me)]F-NH2 (also called Compound No. 237) [[D-Tyr1,D-Asn2,AzaGly7,Arg(Me)9]MS10] | 27 nM | 3 x Metastin (1-54)
[dY]NWQSFGL[Arg(Me)]F-NH2 (N-terminus assumed; SMILES CNC(=N)NCCC[C@H](NC(=O)[C@H](CC(C)C)NC(=O)CNC(=O)[C@H](Cc1ccccc1)NC(=O)[C@H](CO)NC(=O)[C@H](CCC(N)=O)NC(=O)[C@H](Cc1c[nH]c2ccccc12)NC(=O)[C@H](CC(N)=O)NC(=O)[C@H](N)Cc1ccc(O)cc1)C(=O)N[C@@H](Cc1ccccc1)C(N)=O) [[D-Tyr1,Gln4,Arg(Me)9]MS10] | – | 0.5 x Metastin (1-54)
[dY]NANSF[azaGly]L[Arg(Me)]F-NH2 (N-terminus assumed; SMILES CNC(=N)NCCC[C@H](NC(=O)[C@H](CC(C)C)NC(=O)NNC(=O)[C@H](Cc1ccccc1)NC(=O)[C@H](CO)NC(=O)[C@H](CC(N)=O)NC(=O)[C@H](C)NC(=O)[C@H](CC(N)=O)NC(=O)[C@H](N)Cc1ccc(O)cc1)C(=O)N[C@@H](Cc1ccccc1)C(N)=O, also called Compound No. 235) [[D-Tyr1,Ala3,AzaGly7,Arg(Me)9]MS10] | 100 nM | 1 x Metastin (1-54)
[dY]NTNSFGL[Arg(Me)]F-NH2 (N-terminus assumed; SMILES CNC(=N)NCCC[C@H](NC(=O)[C@H](CC(C)C)NC(=O)CNC(=O)[C@H](Cc1ccccc1)NC(=O)[C@H](CO)NC(=O)[C@H](CC(N)=O)NC(=O)[C@@H](NC(=O)[C@H](CC(N)=O)NC(=O)[C@H](N)Cc1ccc(O)cc1)[C@@H](C)O)C(=O)N[C@@H](Cc1ccccc1)C(N)=O, also called Compound No. 205) [[D-Tyr1,Thr3,Arg(Me)9]MS10] | 260 nM | 10 x Metastin (1-54)
[dY]NVNSFGL[Arg(Me)]F-NH2 (N-terminus assumed; SMILES CNC(=N)NCCC[C@H](NC(=O)[C@H](CC(C)C)NC(=O)CNC(=O)[C@H](Cc1ccccc1)NC(=O)[C@H](CO)NC(=O)[C@H](CC(N)=O)NC(=O)[C@@H](NC(=O)[C@H](CC(N)=O)NC(=O)[C@H](N)Cc1ccc(O)cc1)C(C)C)C(=O)N[C@@H](Cc1ccccc1)C(N)=O, also called Compound No. 229) [[D-Tyr1,Val3,Arg(Me)9]MS10] | 130 nM | 1 x Metastin (1-54)
[dY]N[Phe(4-Cl)]NSF[azaGly]L[Arg(Me)]F-NH2 (N-terminus assumed; SMILES CNC(=N)NCCC[C@H](NC(=O)[C@H](CC(C)C)NC(=O)NNC(=O)[C@H](Cc1ccccc1)NC(=O)[C@H](CO)NC(=O)[C@H](CC(N)=O)NC(=O)[C@H](Cc1ccc(Cl)cc1)NC(=O)[C@H](CC(N)=O)NC(=O)[C@H](N)Cc1ccc(O)cc1)C(=O)N[C@@H](Cc1ccccc1)C(N)=O, also called Compound No. 249) [[D-Tyr1,Phe(4Cl)3,AzaGly7,Arg(Me)9]MS10] | 150 nM | 1 x Metastin (1-54)
[dY]NWNSFAL[Arg(Me)]F-NH2 (N-terminus assumed; SMILES CNC(=N)NCCC[C@H](NC(=O)[C@H](CC(C)C)NC(=O)[C@H](C)NC(=O)[C@H](Cc1ccccc1)NC(=O)[C@H](CO)NC(=O)[C@H](CC(N)=O)NC(=O)[C@H](Cc1c[nH]c2ccccc12)NC(=O)[C@H](CC(N)=O)NC(=O)[C@H](N)Cc1ccc(O)cc1)C(=O)N[C@@H](Cc1ccccc1)C(N)=O, also called Compound No. 204) [[D-Tyr1,Ala7,Arg(Me)9]MS10] | 680 nM | 5 x Metastin (1-54)
[dY]N[Phe(3-Cl)]NSF[azaGly]L[Arg(Me)]F-NH2 (also called Compound No. 248) [[D-Tyr1,Phe(3Cl)3,AzaGly7,Arg(Me)9]MS10] | 58 nM | 2 x Metastin (1-54)
[dY]QWNSFGL[Arg(Me)]F-NH2 (also called Compound No. 214) [[D-Tyr1,Gln2,Arg(Me)9]MS10] | 390 nM | 10 x Metastin (1-54)
[dY]NINSF[azaGly]L[Arg(Me)]F-NH2 (N-terminus assumed; SMILES CC[C@H](C)[C@H](NC(=O)[C@H](CC(N)=O)NC(=O)[C@H](N)Cc1ccc(O)cc1)C(=O)N[C@@H](CC(N)=O)C(=O)N[C@@H](CO)C(=O)N[C@@H](Cc1ccccc1)C(=O)NNC(=O)N[C@@H](CC(C)C)C(=O)N[C@@H](CCCNC(=N)NC)C(=O)N[C@@H](Cc1ccccc1)C(N)=O, also called Compound No. 233) [[D-Tyr1,Ile3,AzaGly7,Arg(Me)9]MS10] | 23 nM | 1 x Metastin (1-54)
[dY]N[Phe(4-NH2)]NSF[azaGly]L[Arg(Me)]F-NH2 (N-terminus assumed; SMILES CNC(=N)NCCC[C@H](NC(=O)[C@H](CC(C)C)NC(=O)NNC(=O)[C@H](Cc1ccccc1)NC(=O)[C@H](CO)NC(=O)[C@H](CC(N)=O)NC(=O)[C@H](Cc1ccc(N)cc1)NC(=O)[C@H](CC(N)=O)NC(=O)[C@H](N)Cc1ccc(O)cc1)C(=O)N[C@@H](Cc1ccccc1)C(N)=O, also called Compound No. 250) [[D-Tyr1,Phe(4NH2)3,AzaGly7,Arg(Me)9]MS10] | 3.7 nM | 1 x Metastin (1-54)
[dY]N[Phe(2-Cl)]NSF[azaGly]L[Arg(Me)]F-NH2 (N-terminus assumed; SMILES CNC(=N)NCCC[C@H](NC(=O)[C@H](CC(C)C)NC(=O)NNC(=O)[C@H](Cc1ccccc1)NC(=O)[C@H](CO)NC(=O)[C@H](CC(N)=O)NC(=O)[C@H](Cc1ccccc1Cl)NC(=O)[C@H](CC(N)=O)NC(=O)[C@H](N)Cc1ccc(O)cc1)C(=O)N[C@@H](Cc1ccccc1)C(N)=O, also called Compound No. 247) [[D-Tyr1,Phe(2Cl)3,AzaGly7,Arg(Me)9]MS10] | 45 nM | 1 x Metastin (1-54)
[dY]NFNSF[azaGly]L[Arg(Me)]F-NH2 (also called Compound No. 244) [[D-Tyr1,Phe3,AzaGly7,Arg(Me)9]MS10] | 77 nM | 1 x Metastin (1-54)
[dY]TWNSFGL[Arg(Me)]F-NH2 (N-terminus assumed; SMILES CNC(=N)NCCC[C@H](NC(=O)[C@H](CC(C)C)NC(=O)CNC(=O)[C@H](Cc1ccccc1)NC(=O)[C@H](CO)NC(=O)[C@H](CC(N)=O)NC(=O)[C@H](Cc1c[nH]c2ccccc12)NC(=O)[C@@H](NC(=O)[C@H](N)Cc1ccc(O)cc1)[C@@H](C)O)C(=O)N[C@@H](Cc1ccccc1)C(N)=O, also called Compound No. 215) [[D-Tyr1,Thr2,Arg(Me)9]MS10] | 250 nM | 10 x Metastin (1-54)
[dN]WNSFGL[Arg(Me)]F-NH2 (N-terminus assumed; SMILES CNC(=N)NCCC[C@H](NC(=O)[C@H](CC(C)C)NC(=O)CNC(=O)[C@H](Cc1ccccc1)NC(=O)[C@H](CO)NC(=O)[C@H](CC(N)=O)NC(=O)[C@H](Cc1c[nH]c2ccccc12)NC(=O)[C@H](N)CC(N)=O)C(=O)N[C@@H](Cc1ccccc1)C(N)=O, also called Compound No. 216) [des(1)-[D-Asn2,Arg(Me)9]MS10] | 700 nM | 1 x Metastin (1-54)
[dY]INSFGL[Arg(Me)]F-NH2 (N-terminus assumed; SMILES CC[C@H](C)[C@H](NC(=O)[C@H](N)Cc1ccc(O)cc1)C(=O)N[C@@H](CC(N)=O)C(=O)N[C@@H](CO)C(=O)N[C@@H](Cc1ccccc1)C(=O)NCC(=O)N[C@@H](CC(C)C)C(=O)N[C@@H](CCCNC(=N)NC)C(=O)N[C@@H](Cc1ccccc1)C(N)=O, also called Compound No. 228) [des(1)-[D-Tyr2,Ile3,Arg(Me)9]MS10] | 40 nM | 5 x Metastin (1-54)
[dY]TNSFGL[Arg(Me)]F-NH2 (N-terminus assumed; SMILES CNC(=N)NCCC[C@H](NC(=O)[C@H](CC(C)C)NC(=O)CNC(=O)[C@H](Cc1ccccc1)NC(=O)[C@H](CO)NC(=O)[C@H](CC(N)=O)NC(=O)[C@@H](NC(=O)[C@H](N)Cc1ccc(O)cc1)[C@@H](C)O)C(=O)N[C@@H](Cc1ccccc1)C(N)=O, also called Compound No. 227) [des(1)-[D-Tyr2,Thr3,Arg(Me)9]MS10] | 48 nM | 1 x Metastin (1-54)
[dY]FNSF[azaGly]L[Arg(Me)]F-NH2 (N-terminus assumed; SMILES CNC(=N)NCCC[C@H](NC(=O)[C@H](CC(C)C)NC(=O)NNC(=O)[C@H](Cc1ccccc1)NC(=O)[C@H](CO)NC(=O)[C@H](CC(N)=O)NC(=O)[C@H](Cc1ccccc1)NC(=O)[C@H](N)Cc1ccc(O)cc1)C(=O)N[C@@H](Cc1ccccc1)C(N)=O, also called Compound No. 254) [des(1)-[D-Tyr2,Phe3,AzaGly7,Arg(Me)9]MS10] | 11 nM | 1 x Metastin (1-54)
[dN][dW]NSFGL[Arg(Me)]F-NH2 (N-terminus assumed; SMILES CNC(=N)NCCC[C@H](NC(=O)[C@H](CC(C)C)NC(=O)CNC(=O)[C@H](Cc1ccccc1)NC(=O)[C@H](CO)NC(=O)[C@H](CC(N)=O)NC(=O)[C@@H](Cc1c[nH]c2ccccc12)NC(=O)[C@H](N)CC(N)=O)C(=O)N[C@@H](Cc1ccccc1)C(N)=O, also called Compound No. 225) [des(1)-[D-Asn2,D-Trp3,Arg(Me)9]MS10] | 410 nM | 1 x Metastin (1-54)
[dY]SNSFGL[Arg(Me)]F-NH2 (N-terminus assumed; SMILES CNC(=N)NCCC[C@H](NC(=O)[C@H](CC(C)C)NC(=O)CNC(=O)[C@H](Cc1ccccc1)NC(=O)[C@H](CO)NC(=O)[C@H](CC(N)=O)NC(=O)[C@H](CO)NC(=O)[C@H](N)Cc1ccc(O)cc1)C(=O)N[C@@H](Cc1ccccc1)C(N)=O, also called Compound No. 226) [des(1)-[D-Tyr2,Ser3,Arg(Me)9]MS10] | 100 nM | 1 x Metastin (1-54)
